In this experiment the target is GST-TRIP8b(1b-2) full. In words: pull-down.

The substance “clathrin (from UniProt P11442 1-1675; P08081 1-248) (complex)” had a fraction of loaded clathrin in the eluate (fraction of loaded clathrin) above 0.67.

Values taken from publication PMC3166428.
